Test results taken from the nanobody polyreactivity screen of Harvey et al. (2022).

Test: yeast display, Sf9 membrane polyspecificity reagent, FACS + sequencing; frameworks hold sequencing errors
Procedure, shortened: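 In a synthetic yeast display library (Saccharomyces cerevisiae BJ5465), nanobody expression was induced with galactose for 36–48 hours. FACS gates were set low and high (top ~1%) using anti-HA fluorescence for expression and streptavidin fluorescence for binding of the Sf9 membrane reagent. Each polyreactivity label is drawn from the gate of origin.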

Sequence: QVQLVESGGGLVQAGGSLRLSCAASGSIFRSYAMGWYRQAPGKERELVASISRRGGSTYYADSVKGRFTISRDNAKNSVYLQMNSLKPEDTAVYYCAAVRYNSRVSTTPSEMYYWGQGTQVTVSS
- polyreactivity (PSR sort gate): low polyreactivity

Sequence: QVQLVESGGGLVQAGGSLRLSCAASGSIFRTNAMGWYRQAPGKERELVAAITGSGGSTYYADSVKGRFTISRDNAKNTVYLQMNSLKPVDTAVYYCAADGQLPPRGILASWEFDYWGQGTQVTVSS
- polyreactivity (PSR sort gate): low polyreactivity

Sequence: QVQLVESGGGLVQAGGSLRLSCAASGSIFRTYAMGWYRQAHGKETELVAAITRSGGTTYYADSVKGRFTISRDNAKNTVYLQMNSLKPEDTAVYFCNAQGYWYKGRRRGDYWGQGTQVTVSS
- polyreactivity (PSR sort gate): high polyreactivity

Sequence: QVQLVESGGGLVQAGGSLRLSCAASGSIFRVYAMGRYRQAPGKERELVATISGSAGRTYYADSVKGRFTISRDNAKNTVYLQMNSLKPEDTAVYYCAARWYKEYYWGQGTQVTVSS
- polyreactivity (PSR sort gate): high polyreactivity

Sequence: QVQLVESGGGLVQAGGSLRLSCAASGSIFRVYAMGWYRQAPGKERELVAAISKSGSSTYYADSVKGRFTISRDNAKNTVYLQMNSLKPEDTAVYYCAARRVLGEYGYWGQGTQVTVSS
- polyreactivity (PSR sort gate): high polyreactivity

Sequence: QVQLVESGGGLVQAGGSLRLSCAASGSIFRVYAMGWYRQAPGKERELVAAISWGGGTTYYADSVKGRFTISRDNAKNTVYLQMNSLKPEDTAVYYCNKVGVRSGARSIYVVRRYEYWGQGTQVTVSS
- polyreactivity (PSR sort gate): high polyreactivity

Sequence: QVQLVESGGGLVQAGGSLRLSCAASGSIFRVYAMGWYRQAPGKERELVAAISWGRGTTYYADSVKGRFTISRDNAKNTVYLQMTSLKPEDTAVYYCAAGGVGAYDYWGQGTQVTVSS
- polyreactivity (PSR sort gate): high polyreactivity

Sequence: QVQLVESGGGLVQAGGSLRLSCAASGSIFRWYAMGWYRKAPGKERELVARITVSGGSTYYADSVKGRFTISRDNAKNTVYLEMNSLKPEDTAVYYCNARAHYTPDGGGDYWGQGTQVTVSS
- polyreactivity (PSR sort gate): high polyreactivity

Sequence: QVQLVESGGGLVQAGGSLRLSCAASGSIFRWYAMGWYRQAPGKEREFVAAISWSGTSTYYADSVKGRFTISRDNAKNTVYLQMNSLKPEDTAVYYCNALLPSSRAPDYGYWGQGTQVTVSS
- polyreactivity (PSR sort gate): high polyreactivity

Sequence: QVQLVESGGGLVQAGGSLRLSCAASGSIFRWYAMGWYRQAPGKERELVAGISSTGGSTYYADSVKGRFTISRDNAKNTVYLQMNSLKPEDTAVLYCAVVSYPSAFRRYNYWGQGTQVTVSS
- polyreactivity (PSR sort gate): high polyreactivity

Sequence: QVQLVESGGGLVQAGGSLRLSCAASGSIFRYNAMGWYRQAPGKDRELVAAISSGGSTKYADSVKGRFTISRDNAKNTVYLQMNSMKPEDTAVYFCVARRARYDYWGQGTQVTVSS
- polyreactivity (PSR sort gate): high polyreactivity

Sequence: QVQLVESGGGLVQAGGSLRLSCAASGSIFRYNAMGWYRQAPGKERELVAAISSGGSTKYADSVKGRFTISRDNAKKTVYLQMNSLKPEDTAVYYCVARRARYDYWGQGTQVTVSS
- polyreactivity (PSR sort gate): high polyreactivity

Sequence: QVQLVESGGGLVQAGGSLRLSCAASGSIFRYNAMGWYRQAPGKERELVAAITRSGGRTYYADSVKGRFTISRDNAKNTVYLQMNSLKPEDTAVYYCAAKGYTYGLTYDYWGQGTQVTVSS
- polyreactivity (PSR sort gate): high polyreactivity

Sequence: QVQLVESGGGLVQAGGSLRLSCAASGSIFRYNAMGWYRQAPGKERELVAGITWGGGRTYYADSVKGRFTISRDNAKNTVYLQMNSLKPEDTAVYYCAAVIARPAVQAYLVTKYDYWGQGTQVTVSS
- polyreactivity (PSR sort gate): high polyreactivity

Sequence: QVQLVESGGGLVQAGGSLRLSCAASGSIFRYYAMGWYRQAPGKEREFVAAINTNDAGTYYADSVKGRFTISRDNAKNTVYLQMNSLKPEDTAVYYCAADTGYPFWYDYWGQGTQVTVSS
- polyreactivity (PSR sort gate): high polyreactivity

Sequence: QVQLVESGGGLVQAGGSLRLSCAASGSIFRYYAMGWYRQAPGKERELVAAIRWSGGSTYYADSVKGRFTISRDNAKNTVYLQMNSLKPEDTAVYYCAARVGYRGSRQYSSYTLVDYWGQGTQVTVSS
- polyreactivity (PSR sort gate): high polyreactivity

Sequence: QVQLVESGGGLVQAGGSLRLSCAASGSIFRYYAMGWYRQAPGKERELVAAISSGTITNYADSVKGRFTISRDNAKNTVYLQMNSLKPEDTAVYYCAADTWYLGYPDYWLDYWGQGTQVTVSS
- polyreactivity (PSR sort gate): low polyreactivity

Sequence: QVQLVESGGGLVQAGGSLRLSCAASGSIFRYYAMGWYRQAPGKERELVAAITGRGGSTYYADSVKGRFTISRDNAKNTVYLQMNSLKPEDTAVYYCADYIDANVHRFDYWGQGTQVTVSS
- polyreactivity (PSR sort gate): low polyreactivity

Sequence: QVQLVESGGGLVQAGGSLRLSCAASGSIFRYYAMGWYRQAPGKERELVATISRDGGNTYYADSVKGRFTISRDNAKNTVYVQMNSLKPEDTAVYYCAKLGYRLSGYGYDYWGQGTQVTVSS
- polyreactivity (PSR sort gate): high polyreactivity

Sequence: QVQLVESGGGLVQAGGSLRLSCAASGSIFRYYAMGWYRQAPGKERELVATITFNGGNTYYADSVKGRFTISRDNAKNTVYLQMNSLKPEDTAVYYCAATYVRRGPTRYYYWGQGTQVTVSS
- polyreactivity (PSR sort gate): high polyreactivity

Sequence: QVQLVESGGGLVQAGGSLRLSCAASGSIFRYYAMGWYRQAPGKERELVATITSGGSTSYADSVKGRFTISRDNAKNTVYLQMNSLKPEDTAVYYCAKRSRHNKYYYWGQGTQVTVSS
- polyreactivity (PSR sort gate): high polyreactivity

Sequence: QVQLVESGGGLVQAGGSLRLSCAASGSIFRYYAMGWYRQAPGKERELVAVITRGGSTYYADSVKGRFTISRDNAKNTVYLQMNRLKPEDTAVYYCAADFWPAGLDRGYWGQGTQVTVSS
- polyreactivity (PSR sort gate): low polyreactivity

Sequence: QVQLVESGGGLVQAGGSLRLSCAASGSIFRYYAMGWYRQAPGKERELVAVITSSGTSTYYADSVKGRFTISRDNAKNTVYLQMNSLKPEDTAVYYCARRSSGELRYHIYDYWGQGTQVTLSS
- polyreactivity (PSR sort gate): low polyreactivity

Sequence: QVQLVESGGGLVQAGGSLRLSCAASGSIFRYYAMGWYRQAPGKESEFVASITYRGGRTYYADSVKGRFTISRDNAKNTVYLQMNSLKPEDTAVYYCAARTRAGAWTSKYHDYWGQGTQVTVSS
- polyreactivity (PSR sort gate): high polyreactivity

Sequence: QVQLVESGGGLVQAGGSLRLSCAASGSIFRYYGMGWSRQAPGKERELVAAITWRGSSTYYADSVKGRFTISRDNAKNSVYLQMNSLNPEDTAVYYCAAYSASYGGYDYWGQGTQVTVSS
- polyreactivity (PSR sort gate): high polyreactivity

Sequence: QVQLVESGGGLVQAGGSLRLSCAASGSIFRYYTMGWDRQAPGKERELVAAISWSGGRTYYADSVKGRFTISRDNAKNTVYLQMNSLKPEDTAVYYCAAVRPYYYPLPTVPNLPYDYWGQGTQVTVSS
- polyreactivity (PSR sort gate): high polyreactivity

Sequence: QVQLVESGGGLVQAGGSLRLSCAASGSIFRYYTMGWYRQAPGKERELVAGINRGGRTYYADSVKGRYTISRDNAKNTVYLQMNSLKPEDTAVYYCAAVTYYGFDYWGQGTQVTVSS
- polyreactivity (PSR sort gate): high polyreactivity

Sequence: QVQLVESGGGLVQAGGSLRLSCAASGSIFRYYVMGWYRQAPGKERELVAAISSGGRTYYADSVKGRFTISRDNAKNTVYLQMNSLKPEDTAVYYCAAGEPTRGDYWGQGTQVTVSS
- polyreactivity (PSR sort gate): high polyreactivity

Sequence: QVQLVESGGGLVQAGGSLRLSCAASGSIFRYYVMGWYRQAPGKERELVAAISTGDRTNYADSVKGRFTISRDNAKNTVYLQMNILKPEDTAVYYCNADYVVGWARLEFNYWGQGTQVTVSS
- polyreactivity (PSR sort gate): low polyreactivity

Sequence: QVQLVESGGGLVQAGGSLRLSCAASGSIFRYYVMGWYRQAPGKERELVAAITKSAGSTYYADSVKGRFTISRDNAKNTVYLQMNSLKPEDTAVYYCAARRVSRGNSKFDYYWGQGTQVTVSS
- polyreactivity (PSR sort gate): high polyreactivity

Sequence: QVQLVESGGGLVQAGGSLRLSCAASGSIFRYYVMGWYRQAPGKERELVASITGSGGSTYYADSLKGRFTISRDNAKNTVYLQMNSLKPEDTAVYYCAASYRMRYGYWGQGTQVTVSS
- polyreactivity (PSR sort gate): high polyreactivity

Sequence: QVQLVESGGGLVQAGGSLRLSCAASGSIFSDYALGWYRQAPGKERELVAAITQSGGSTYADSVKGRFTISRDNAKNTVYLQMNSLIPEDTAVYYCAADEVPGFGYPPYPWFDYWGQGTQVTVSS
- polyreactivity (PSR sort gate): low polyreactivity

Sequence: QVQLVESGGGLVQAGGSLRLSCAASGSIFSENTRGWYRQAPGKERELVAAISWSGGSTNYADSVKGRFTISRDNAKNTVYLQMNSLKPEDTAVYYCFYWGQCTQVTVSS
- polyreactivity (PSR sort gate): low polyreactivity

Sequence: QVQLVESGGGLVQAGGSLRLSCAASGSIFSFYAMGWYRPAPGKERELVAAISYRGGSTYYADSVKGRFTISRDNAKNTVYIQMNSLKPVDSAVSYCAAARFPVFIQGYRMEYWGQGTQVTVSS
- polyreactivity (PSR sort gate): low polyreactivity

Sequence: QVQLVESGGGLVQAGGSLRLSCAASGSIFSFYAMGWYRQAPGKEMELVATISSGDNTNYADSVKGRFTISRDNAKNTVYLQMNSLKPEDNAVYYCAADAWGVDREYDYWGQGTQVTVSS
- polyreactivity (PSR sort gate): low polyreactivity

Sequence: QVQLVESGGGLVQAGGSLRLSCAASGSIFSFYAMGWYRQAPGKERELVADITWSGGRTYYADSVKGRFTISRDNAKNTVYLQMNSLKPEDTAVYYCNTELYLSRYKYVWSFDYWGQGTQVTVSS
- polyreactivity (PSR sort gate): low polyreactivity

Sequence: QVQLVESGGGLVQAGGSLRLSCAASGSIFSGNAMGWYRQAPGKERELVAAITSGGSTYYADSVKGRFTISRDNAKNTVYLQMNSLKPEDTAVYYCAAVWYQYYYDRRHDYWGQGTQVTVSS
- polyreactivity (PSR sort gate): low polyreactivity

Sequence: QVQLVESGGGLVQAGGSLRLSCAASGSIFSGNEMAWYRQAPGKERELVAAISSNGGRTYYADSVKGRFTISRDNEKNTVYLQMNSLKPEDTAVDYCAADSGKRRYGYYYWGQATQVTVSS
- polyreactivity (PSR sort gate): high polyreactivity

Sequence: QVQLVESGGGLVQAGGSLRLSCAASGSIFSGNTMGWYRQAPGKERELVAAISGGGSTNYADSVKGRFTISRDNAKNTVYLQMNSLKPEDTAVYYCAAEPDHVADSHSGYDYWGQGTQVTVSS
- polyreactivity (PSR sort gate): low polyreactivity

Sequence: QVQLVESGGGLVQAGGSLRLSCAASGSIFSGYAMGWYRQAPGKERELVAAISRGGSTNYADSVKGRFTISRDNAKNTVYLQMNSLKPEDTAVYYCATTPTKYHYAFGYWGQGSQVTVSS
- polyreactivity (PSR sort gate): low polyreactivity

Sequence: QVQLVESGGGLVQAGGSLRLSCAASGSIFSGYTMGWYRQAPGKDRELVAGISYRGGSTYYADSVKGRFTISRDNAKNTVYLQMNSLKPEDTAVYYCAALYYRRGSLNYEYWGQGTQVTVSS
- polyreactivity (PSR sort gate): high polyreactivity

Sequence: QVQLVESGGGLVQAGGSLRLSCAASGSIFSGYTMGWYRQAPGKERELVAGISYRGGSTYYADSVKGRFTNSRDNAKNTVYLQMNSLKPEDTAVYYCAALYYRRGSLNYEYWGQGTQVTVSS
- polyreactivity (PSR sort gate): high polyreactivity

Sequence: QVQLVESGGGLVQAGGSLRLSCAASGSIFSGYVMGWYRQAPGKERELVAAINSRAGRTYYADSVKGRFTISRDNAKNTVYLQMNSLKPEDTAVYYCNAPTSFHRGGGYWGQGTQVTVSS
- polyreactivity (PSR sort gate): high polyreactivity
